Experimental data published in the supplement of paper PMC7877785.
± gives the uncertainty stated by the source.

Experiment: self-splicing fitness, log relative to wild type (ln ratio); higher = more splicing; Tetrahymena group I intron in knt gene, E. coli kanamycin selection, DiMSum; sequences stand for … in CUCUCU…GGAGGGAAAAGUUAUCAGGCAUGCACCUGGUAGCUAGUCUUUAAACCAAUAGAUUGCAUCGGUUUAAAAGGCAAGACCGUCAAAUUGCGGGAAAGGGGUCAACAGCCGUUCAGUACCAAGUCUCAGGGGAAACUUUGAGAUGGCCUUGCAAAGGGUAUGGUAAUAAGCUGACGGACAUGGUCCUAACCACGCAGCCAAGUCCUAAGUCAACAGAUCUUCUGUUGAUAUGGAUGCAGUUCACAGACUAAAUGUCGGUCGGGGAAGAUGUAUUCUUCUCAUAAGAUAUAGUCGGACCUCUCCUUAAUGGGAGCUAGCGGAUGAAGUGAUGCAACACUGGAGCCGCUGGGAACUAAUUUGUAUGCGAAAGUAUAUUGAUUAGUUUUGGAGUACUCGUGGUCG
Outline: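 Six replicate transformations of E. coli BL21(DE3) with a pET-22b(+) library were grown overnight at 37°C or 30°C. The library randomised all eight P1ex-region intron nucleotides, the intron lying in the knt kanamycin-resistance gene, and plates were LB agar with or without 25 μg/mL kanamycin plus 100 μg/mL carbenicillin, 50 μM IPTG and 0.2% rhamnose. Pooled colonies were amplicon-sequenced on an Illumina HiSeq 2500, and fitness is the DiMSum error-weighted combination of wild-type-normalised replicate fold changes, kanamycin versus none.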

| Sequence | self-splicing fitness (ln) (30 °C) | self-splicing fitness (ln) (37 °C) |
| --- | --- | --- |
| GAGAAGCAAUAUUACGGCUU | -3.58 ± 0.33 | -1.75 ± 0.24 |
| GGACAGCAAUAUUACGCCGG | -3.95 ± 0.48 | -2.11 ± 0.32 |
| UAGGAGCAAUAUUACGGCAA |  | -1.07 ± 0.2 |
| CCCUAGCAAUAUUACGUAAG | -3.8 ± 0.18 | -2.04 ± 0.17 |
| CAGCAGCAAUAUUACGGAGU | -3.15 ± 0.12 | -2.49 ± 0.15 |
| UUUGAGCAAUAUUACGCAUG | -0.647 ± 0.12 | -0.524 ± 0.19 |
| CUGAAGCAAUAUUACGAUAC | -2.44 ± 0.32 | -1.94 ± 0.36 |
| GAACAGCAAUAUUACGUACC | -0.94 ± 0.27 | 0.0452 ± 0.3 |
| UUCAAGCAAUAUUACGCUUU | -5.08 ± 0.41 | -2.37 ± 0.28 |
| GAACAGCAAUAUUACGCGAA | -0.881 ± 0.086 | -0.124 ± 0.12 |
| GACUAGCAAUAUUACGUGGG | -3.35 ± 0.13 | -1.96 ± 0.098 |
| AUUCAGCAAUAUUACGGGGA | -1.93 ± 0.094 | -0.802 ± 0.083 |
| GGCGAGCAAUAUUACGACCG | -0.74 ± 0.28 | -0.371 ± 0.26 |
| AGCCAGCAAUAUUACGCAAG | -3.8 ± 0.34 | -2.98 ± 0.4 |
| UCGGAGCAAUAUUACGUGUA |  | -1.29 ± 0.2 |
| AUCCAGCAAUAUUACGAUGU | -0.743 ± 0.066 | 0.613 ± 0.093 |
| GAUAAGCAAUAUUACGCCCU | -0.569 ± 0.13 | 0.292 ± 0.15 |
| ACCUAGCAAUAUUACGUCAU | -2.11 ± 0.12 | -1.63 ± 0.12 |
| AUCGAGCAAUAUUACGGGCG | -2.97 ± 0.16 | -2.37 ± 0.19 |
| UGUUAGCAAUAUUACGAGUC | -4.22 ± 0.42 |  |
| AUAUAGCAAUAUUACGCCGA | -2.85 ± 0.48 | -1.13 ± 0.35 |
| CGAUAGCAAUAUUACGGUUG | -1.9 ± 0.15 | -0.9 ± 0.13 |
| AGUGAGCAAUAUUACGGUCA | -2.16 ± 0.19 | -0.354 ± 0.19 |
| CCCCAGCAAUAUUACGUGCU | -3.34 ± 0.14 | -2.47 ± 0.16 |
| GACCAGCAAUAUUACGUUGG | -3.95 ± 0.13 | -2.53 ± 0.12 |

| Sequence | self-splicing fitness (ln) (30 °C) | self-splicing fitness (ln) (37 °C) |
| --- | --- | --- |
| GGACAGCAAUAUUACGCAUU | -0.834 ± 0.062 | -0.622 ± 0.078 |
| CUCUAGCAAUAUUACGCCUU | -1.58 ± 0.18 |  |
| GUCAAGCAAUAUUACGCUCG | -2.95 ± 0.14 | -1.18 ± 0.12 |
| GAAAAGCAAUAUUACGGGCU | -1.37 ± 0.15 | -1.72 ± 0.21 |
| GGGCAGCAAUAUUACGGUUC | -1.53 ± 0.11 | -1.93 ± 0.13 |
| AUUCAGCAAUAUUACGCUCC | -0.31 ± 0.073 | 0.274 ± 0.096 |
| ACAGAGCAAUAUUACGAACC |  | -1.67 ± 0.49 |
| UGUAAGCAAUAUUACGUUAU | -3.54 ± 0.22 | -2.73 ± 0.26 |
| CCUGAGCAAUAUUACGCAUC | -3.39 ± 0.44 |  |
| UGUCAGCAAUAUUACGUCAU | -1.79 ± 0.1 | -1.38 ± 0.14 |
| CUUUAGCAAUAUUACGUUAA | -2.87 ± 0.27 |  |
| UUAUAGCAAUAUUACGGCAC | -2.82 ± 0.36 | -2.51 ± 0.49 |
| CUUUAGCAAUAUUACGAUCG | 0.191 ± 0.17 | 0.476 ± 0.22 |
| GACUAGCAAUAUUACGAAUG | -2.65 ± 0.18 | -1.93 ± 0.17 |
| CUAUAGCAAUAUUACGAAGU | -3.32 ± 0.25 | -1.93 ± 0.28 |
| GUAAAGCAAUAUUACGUUUU | -2.7 ± 0.076 | -1.9 ± 0.1 |
| UUGAAGCAAUAUUACGGUCU | -0.0588 ± 0.058 | -0.0885 ± 0.075 |
| GUAAAGCAAUAUUACGGAGA | -3.54 ± 0.28 |  |
| UUACAGCAAUAUUACGGUCU | -0.96 ± 0.075 | -0.357 ± 0.088 |
| UUAUAGCAAUAUUACGAGGC | -3.95 ± 0.37 | -3.71 ± 0.42 |
| AGGGAGCAAUAUUACGUGAU | -3.34 ± 0.25 | -2.91 ± 0.26 |
| GUACAGCAAUAUUACGUCAA | -1.75 ± 0.16 | -2.38 ± 0.21 |
| CAGAAGCAAUAUUACGCGCC | -2.83 ± 0.25 | -1.34 ± 0.18 |
| UACAAGCAAUAUUACGUAUC | -3.94 ± 0.24 | -2.69 ± 0.21 |
| CGGAAGCAAUAUUACGAAUA | -2.53 ± 0.39 |  |

| Sequence | self-splicing fitness (ln) (30 °C) | self-splicing fitness (ln) (37 °C) |
| --- | --- | --- |
| UUUUAGCAAUAUUACGUGAG | -0.331 ± 0.12 | -0.445 ± 0.22 |
| AUCGAGCAAUAUUACGCGUA | -1.93 ± 0.17 | -1.01 ± 0.14 |
| UCAAAGCAAUAUUACGGGAA | -1.5 ± 0.15 | -0.928 ± 0.16 |
| UGUUAGCAAUAUUACGCACU | -0.724 ± 0.1 | -0.553 ± 0.12 |
| GCCAAGCAAUAUUACGCGGG | -3.54 ± 0.23 | -2.37 ± 0.18 |
| AGGUAGCAAUAUUACGUUAU | -3.603 ± 0.026 | -2.75 ± 0.039 |
| CUCGAGCAAUAUUACGGCAG | -1.71 ± 0.13 | -1.03 ± 0.15 |
| CACUAGCAAUAUUACGGAGA |  | -2.39 ± 0.22 |
| CCGAAGCAAUAUUACGAUUC |  | -2.07 ± 0.25 |
| CUAGAGCAAUAUUACGAGUA | -3.71 ± 0.23 | -1.17 ± 0.17 |
| GAGGAGCAAUAUUACGUUCG | -1.89 ± 0.2 | -1.27 ± 0.23 |
| UUGAAGCAAUAUUACGUAGA | -1.28 ± 0.12 | -0.894 ± 0.15 |
| GCGAAGCAAUAUUACGUUUU | -3.16 ± 0.12 | -2.5 ± 0.17 |
| GUGUAGCAAUAUUACGAUCA | -0.818 ± 0.13 | -0.543 ± 0.14 |
| GUGAAGCAAUAUUACGCCGA | -0.95 ± 0.15 | -0.474 ± 0.16 |
| AACGAGCAAUAUUACGACGU | -0.822 ± 0.09 | -0.593 ± 0.089 |
| CUUUAGCAAUAUUACGUGUU | -3.49 ± 0.18 | -3.77 ± 0.22 |
| AUUUAGCAAUAUUACGUGUA | -2.42 ± 0.23 | -1.5 ± 0.17 |
| UGGCAGCAAUAUUACGCGGU | -2.54 ± 0.16 | -2.62 ± 0.31 |
| AACAAGCAAUAUUACGCCAU | -2.66 ± 0.11 | -2.08 ± 0.13 |
| AAAAAGCAAUAUUACGCGAC | -2.77 ± 0.18 | -1.23 ± 0.12 |
| CGUGAGCAAUAUUACGGGGC | -3.54 ± 0.28 | -2.03 ± 0.2 |
| UCAUAGCAAUAUUACGUUCG | -1.03 ± 0.098 | -0.686 ± 0.1 |
| AUCGAGCAAUAUUACGUGCU | -2.72 ± 0.2 | -2 ± 0.27 |
| AAUCAGCAAUAUUACGAACU | -0.125 ± 0.05 | 0.389 ± 0.077 |

| Sequence | self-splicing fitness (ln) (30 °C) | self-splicing fitness (ln) (37 °C) |
| --- | --- | --- |
| CGGUAGCAAUAUUACGAGGA | -3.34 ± 0.46 | -1.75 ± 0.29 |
| UCGCAGCAAUAUUACGUCCG | -0.808 ± 0.078 | -0.0675 ± 0.1 |
| GUGCAGCAAUAUUACGAAAU | -1.31 ± 0.084 | -0.452 ± 0.097 |
| GCGCAGCAAUAUUACGUAUU | -0.596 ± 0.081 | -0.709 ± 0.099 |
| GGGAAGCAAUAUUACGCGGA | -2.82 ± 0.23 | -1.44 ± 0.18 |
| CCGAAGCAAUAUUACGCCGU | -2.44 ± 0.27 | -1.04 ± 0.36 |
| AAUCAGCAAUAUUACGCAUA | -0.272 ± 0.085 | -0.142 ± 0.13 |
| AAGAAGCAAUAUUACGUCAG | -2.66 ± 0.2 | -1.91 ± 0.16 |
| UUACAGCAAUAUUACGAGGC |  | -1.85 ± 0.3 |
| UGUAAGCAAUAUUACGUCGG | -1.67 ± 0.13 | -1.95 ± 0.14 |
| UGAGAGCAAUAUUACGUAAA | -4.31 ± 0.39 | -2.43 ± 0.45 |
| CGCCAGCAAUAUUACGCAGU | -4.04 ± 0.18 | -2.18 ± 0.16 |
| UUUUAGCAAUAUUACGAACG | -0.665 ± 0.11 | 0.449 ± 0.18 |
| UCACAGCAAUAUUACGCGCG | -0.645 ± 0.089 | -0.233 ± 0.11 |
| CAUAAGCAAUAUUACGCCUC | -2.88 ± 0.39 | -1.75 ± 0.41 |
| CGACAGCAAUAUUACGGACA | -1.24 ± 0.11 | -0.761 ± 0.12 |
| CGAUAGCAAUAUUACGCAUA | -3.25 ± 0.28 | -1.8 ± 0.24 |
| GGGUAGCAAUAUUACGUUUC | -2.16 ± 0.12 | -0.68 ± 0.15 |
| UAAAAGCAAUAUUACGCAAA | -3.71 ± 0.4 | -0.788 ± 0.18 |
| GUACAGCAAUAUUACGACUU | -0.754 ± 0.059 | -0.179 ± 0.073 |
| CUCUAGCAAUAUUACGUAGU | -4.1 ± 0.26 | -4.45 ± 0.36 |
| CCCCAGCAAUAUUACGGUGU | -3.26 ± 0.11 | -1.94 ± 0.1 |
| GUUAAGCAAUAUUACGGUGG | -3.52 ± 0.17 | -1.78 ± 0.15 |
| GUCCAGCAAUAUUACGGUGA | -0.608 ± 0.051 | -0.131 ± 0.071 |
